According to a protein production outcome set (Wang et al. 2014):

Test: label from the status in PepcDB records

## MSVHHAERFLPFSDLQMFTLVADVERYPQFVPWWIAARVIDSRPAPAGDGPDAKIYRTDQVIGMGPVRLRFTSRTLLVSPRRISVASQGGGPVRDLSLDWWFDAQPGGCLTRLDMTLDLGSRSLENLLAGMSSEAAVKLVDAFERRAHALYQGG
  protein production: failed

## MANKTIAQTGSATSPTTNKSGTYVEVPLQDTIPIIFVPGIMGSNIFNTVLGKPVWMIGNGISGQVKTLTKQMGKTPAELQTELDPLNTRVDTSGDIKVDRRLKLTEKTLRERYWGTVHWDSYGGILTYLQMVLNNVDLNEKPIYTTGLGGGYAAVQQMKQQEAVYEWKSLLNQTESSKWFPQQSFVPINQQEIEHLKKFHFPVYAMGYNWLQSSENGAALVAQKLDKIKQEYGARFHKFIIVTHSMGGLLTRRLVQLCSADIAGVV
  protein production: failed

## MWWPGTVIGVGAGFAVASIPGALLGALLGQAIDRRLRLQGWEDMRERLGGRPALRDDELLFVMLGRLAKCDGRVAEQHIQQARQEMVRLDLAEAARLRAINAFNRGKAGKDRLGGHLRRISQQPHAAEGTLRACWRMVWADGKMGNKERELLLDWGQKLGMSRRQVQAMSLEYEPRKATGAESVPMTYAAALRLLAVDADTDTDKVKQAYRRLVSRHHPDKLAGTGASEAQVREATARTRELHQAYAMIRKRRGL
  protein production: failed

## MFTTTSFPDFDSAAQATLTYLHQRMGLSLWMITRTEVDNWIVLQAQDNGYGVKRGDVFHWPDSFCSRMVRGEGPHIAPQSNLVEAYRNAPIAQQVDIGAYVGVPITYGNGSLFGTLCAIDPEIQPDSLVDELPLVELIAQLLSTILDFFLKAEIASRREEYQQLLKERDGTTGFYSLSGWEKLLASEEIRCQKFGFPVSVIIVEVEAAEPKGEEPINDLILQRAAKIIKTVCRQDDFCARIGEREFAILCIECHISQADFIRERLALGFEQGKITADIGIGERSPEKGLLDAMETAKSAAHEQKKFRVKTEG
  protein production: failed

## MSIDLKKRKVEEDVRSRGKNSKIFSPFRIIGNVSNGVPFATGTLGSTFYIVTCVGKTFQIYDANTLHLLFVSEKETPSSIVALSAHFHYVYAAYENKVGIYKRGIEEHLLELETDANVEHLCIFGDYLCASTDDNSIFIYKKSDPQDKYPSEFYTKLTVTEIQGGEIVSLQHLATYLNKLTVVTKSNVLLFNVRTGKLVFTSNEFPDQITTAEPAPVLDIIALGTVTGEVIMFNMRKGKRIRTIKIPQSRISSLSFRTDGSSHLSVGTSSGDLIFYDLDRRSRIHVLKNIHRESYGGVTQATFLNGQPIIVTSGGDNSLKEYVFDPSLSQGSGDVVVQPPRYLRSRGGHSQPPSYIAFADSQSHFMLSASKDRSLWSFSLRKDAQSQEMSQRLHKKQDGGRVGGSTIKSKFPEIVALAIENARIGEWENIITAHKDEKFARTWDMRNKRVGRWTFDTTDDGFVKSVAMSQCGNFGFIGSSNGSITIYNMQSGILRKKYKLHKRAVTGISLDGMNRKMVSCGLDGIVGFYDFNKSTLLGKLKLDAPITAMVYHRSSDLFALALDDLSIVVIDAVTQRVVRQLWGHSNRITAFDFSPEGRWIVSASLDSTIRTWDLPTGGCIDGIIVDNVATNVKFSPNGDLLATTHVTGNGICIWTNRAQFKTVSTRTIDESEFARMALPSTSVRGNDSMLSGALESNGGEDLNDIDFNTYTSLEQIDKELLTLSIGPRSKMNTLLHLDVIRKRSKPKEAPKKSEKLPFFLQLSGEKVGDEASVREGIAHETPEEIHRRDQEAQKKLDAEEQMNKFKVTGRLGFESHFTKQLREGSQSKDYSSLLATLINFSPAAVDLEIRSLNSFEPFDEIVWFIDALTQGLKSNKNFELYETFMSLLFKAHGDVIHANNKNQDIASALQNWEDVHKKEDRLDDLVKFCMGVAAFVTTA
  protein production: failed

## MVLEIGLPPLHVGFIMAYSLLAASLSIFLGLALAEFDVVAHAVLAGYYAGLFFPMSVYTNFFTAAASGAPRPAKEYLPLLLAFILAAVAPLHGSTSTLATLFLLSQAFLLYYMALQAGRFRRDALARFSALAPPISGTGASLILLSSSQLGFLDALMSLTLAFSTPVPLLMAPMAIGASIYGLGPARGKEAIIRLSPALTAIPASILSVLTLSINPYLLPLSLYLVVMRPWRIVSELISVRRPKPPQLYLLSVHAATLAAIVSSLILASNSNIVEAGHAIMIGVIAPHALLHSIVRGGEIPFTRRPRSWTPIPPLLLAASTPLRFASKEASLALALLALSIHVASILDPHPRNIIPRAFRVEGGKQQSATTGG
  protein production: failed

## MSDSLHTPEEPRPGPGEQLAHAHDGSLRHTRAKGEPRFPDGPKADPAGSHFERRIRSFQPRRSRVTAGQADALQRLWPKWGLDIDGHALDLTELFGNTHPVVLEIGFGMGEATARMAAEDPDTGILAVDVHTPGQGNLLNLADQHGLTNIRVANGDAIILLREMLPPDSLDGLRVYFPDPWPKKRHHKRRLIQPEFLTLAATRLRPGALVHCATDWEPYAEQMLDVLTAHPDFENTQPTGGYAPRPGFRPLTRFEGQGLDKGHVVNDLLFRRVQPRDQHRDLPPSATEAD
  protein production: failed

## MESFNTFVRQYNDQHAEAIAKGELEALAESSSAFIEKASGIKSRFVMNKEGILDPQRMVPYLPERSNDEWSILCEMAVAAAREALQRAGRSAADIDGVIVACSNLQRAYPAIAVEVQAALGIQGYGYDMNVACSSATFGIQAATTAIQTGQARAILMVNPEICTGHLNFRDRDSHFIFGDACTAVIVERADLAVSKHQFDIVSTRLLTQFSNNIRNNFGFLNRADESGIGKRDKLFVQEGRKVFKDVCPMVAELIGEHLAANEIQVAEVKRFWLHQANLNMNLLITRKLLGRDAEAHEAPVILDSYANTSSAGSVIALHKHQDDLPSGAIGVLSSFGAGYSIGSVILRKH
  protein production: failed

## MPVCWSHRSDSRPASNATPLSGPVGWAHQAAPLQRLLHGTAPVILSPALEPPQHKDPAMPKLASIHLYPIKSTAGMPLTRALVTEEGLQGDRRYMVVKPDGSFITARTHPQLQQVVATPIEGGLQLRYPGLDPLILQEREFSRTPRATGVWSDSFSALQTQPQADQWLSQVAGEPVQLLWLGEESARFREKTGTRVSFADGYPLLLISQASLEDLNLRSDALHQMSQFRTNLVASGTLPFEEDGWKRIRIGEVEFRVAKPCSRCIMTTVEPGTDRFNALKEPLATLTRYRRGEDGEVYFGQNLVALNEGWIEAGSEIEVLERARAPVYPNAAPKKRELVCVAREPLARDLETFWFEAADGEPLPDYLPGQHLPISLDIGLGLRRERLQRRYTLSSTPERPERYSISVKKVGGGRISHWLHQQLQPGDRLLAAAPAGEFHLGTGRSLLLLSAGSGVTPMLSIARTLALRGELGDVHFMHLCRSEADIPAAGELHALAQQGMTLTLILSQPDTHWQGLKGRLGDDHLKQVKQLAEREVFICGPHGFMADAAARLVALGVPAERIRQESFGGAILSVARPHQAVQLRIGKQSFAGNNQGTVLDQAHKQGVDLPWSCRAGICGSCKQTLLEGEVDHPDAPAITAAERAEGKILTCCAVPLTDLVIK
  protein production: failed

## GYDHKGMGITARGAWESVKRHFRALGRDCQNEDFRCIGVGDMSGDVFGNGMLLSRHSLLVAAFDHRHIFLDPMPDAALSFAERERLFKLPRSSWADYDATLISKGGGIYPRTLKSIQISPQVAEVLGLDKGIKQLSPNVLISAILKAPVDLFWNGGIGTYVKASSETHADVGDRANNALRVNGLELRCKVVGEGGNLGLTQLGRIEAAQRGVLLNTDFIDNSAGVDTSDHEVNIKILLNDVVQAKTLCFDARNALLASMTDDVAQLVLWDNIRQNQALSLMERMSVKRLGSKQHFIRTLERQGLLDRQIEFLPSDAELSARKARGLGL
  protein production: failed

## MLVVYIALMICTMTPVLALQAGADMSVLVWLVFGLVIVKAVLLVDHFMEMKHAPWGWRMAAQGWAVVVVSVLAGIHLAG
  protein production: failed

## MLVSSSKITRAREMVTKTEEKQLNQLEIQVDNGGGGTWEYLCLVRNLKVRRSEKVLKHGSSILNDQKKRSALGPDEWTLNEQVAIAAMDCQCLGVAQSCIKALQTKFPGSKRVGRLEALLLEAKGLWGEAEEAYASLLEDNPLDQAIHKRRVAISKALGKPSIAIELLNKYLELFMADHDAWRELAELYLSLQMYKQAAFCYEELILSQPTVPLYHLAYAEVLYTIGGVENIISARKYYAATVDLTGGKNTRALLGICLCASAIAQLSKGRNKEDKDATAAPELHSLAAAAVEKEYKQKAPDKLQLISSALRILKT
  protein production: failed

## MPRPLVDEVRFLRSWIEKPLHMGAVMPSGKLLARTMARYVDIQSDGPVIELGPGTGAITNALVEHGVDQKRLVLLEFDPGFCALLRERFPLAKVVQGDAYRLRDSLWDALEIPATAVVSGLPLVTKPMLTRMKLIRDAFTLLEPGAPFVQFTYSVAPPIPKSLPGVSTEGSERIWMNVPPARVWVYRKRLEHHHHHH
  protein production: not failed

## AQRRNEIQVPDLDGYTTLKCDFHMHSVFSDGLVWPTVRVDEAYRDGLDAISLTEHIEYRPHKQDVVSDHNRSFDLCREQAEKLGILLIKGSEITRAMAPGHFNAIFLSDSNPLEQKDYKDAFREAKKQGAFMFWNHPGWDSQQPDTTKWWPEHTALYQEGCMHGIEVANGHLYMPEAIQWCLDKNLTMIGTSDIHQPIQTDYDFEKGEHRTMTFVFAKERSLQGIREALDNRRTAAYFHELLIGREDLLRPFFEKCVKIEEVSRNEQGVTLSITNVTDLVLKLKKTAHDTLLVYFRDMTLKPHTRYTVRIGFKQGIKGGDVNFEVTNFIVAPDKGLKYTISL
  protein production: not failed

## MNMQKCDSTQEQQLTFEPRGHQLTNINVWTPDSQWLAYDVRPNSSTFSGLTIERVNCITGDIEVIYRSQHGAHVGVVTVSPDMPARYVFIHGPEHPDNHWHYDFHHRRGVIVTEPDRELAVTLDAMDITPPFTPGALRGGSHVHVFSPDGSRLSFTYNDHVLHEQDPALDCRNVAVALPLHGVNPPKQHPREYDGSHFCVLVTRTTPTPLAGSDQISRAYEEGWIGSQGYLKMDGTRQRWALAFIGDTLSAQGEKIPEIFIADLPEHERDYARAGEEPLEGTQTTMPAPPAGVRQRRLTFTAERHFPGLATSPRHWLRTSPDGSAIACLMKDDEGVVQLWLVSPNGGEPRQLTFTEGGIQSAFSWHPQGHSLVFVCDNSVMQCDSTTGQLWRLTARSAIAPMADAVVFSPDGTKVAFMREIDGLAQIFTVKVD
  protein production: failed

## MDMIKPDFQQIRRDKFRVEQMNDFPNTWTQQQHQNIRIPNNLDLIGILQNQISVPVQTDLYQDSAATFMNMPQSIHRDPQGPSNWRISDLSQPSTVNHGYDQAGIRPNNVADLLSDHFSSRNQILDRPLYVGRDSIPQSSMIRRSEVSCLDDNQKGCVTVACSGTGNEILRSSYDQGSSSGSYRGEFSFLPSLENQSVAHNASNWNHGPVNVTATSHTNSKKGFPLSLLSDIPPSRDVGNAAVLSTMNIHGPLGPFTGYASILKSSRFLEPAQKMLEEFCISYASKIISRSESTSMEDDDDDDDNLSGFSSSSEPLEPKNRLKKAKLLFLQEEVCKWYKLYNHQLQTVMSSFNTVAGLNTATPYISLALKRTSRSFKALRTAIAEHVKQISSHSSNGNNNNRFQKRQRSLIGNNVGFESQQQHIWRPQRGLPERAVAVLRAWLFDHFLHPYPTDSDKQMLATQTGLSRNQVSNWFINARVRLWKPMVEEIHTLETKAIKNADTSHNIEPSNRPNTVSSPSHEQTLTGLSGTKRSRLEYMDMVGFNRGNVSLTLELRRGVDNVIQTQTQDHQFGTGSQMFHDFVG
  protein production: failed

## MFHKALWMRQWKQGKYIILLFWLTSLYQLPYKYYQEAQTQLKLSKMKFGDYTYYYSYYFQTSDGAVFFQGATLIALACLLIGWERNNQSNDFLFSMPFKRKDIFLTKWWLGVLNIITVQIICLISMYGIKNMSFHNEYQTFAPFYSYFLYATVVLIAIYTFALFIGTITGHIFSQSILTIILLFLPYGFGLLISGFIYSHTQWSVDAMGEIEYHTHEYLQHIGIISPLEYFSITYDYHPIETFDDYGNKLPSVSQDNPTERISVPSPWTLLTPFSYIITFLSIATFLYTRTPNEQSGKILLFPNLQKWFIICTVLCFGLLGGRILGGRDALLSYYVGFFLFATISYFIFTRLLKLKFAFAGK
  protein production: failed
